Measured values reported in US20060002929A1.

Columns and labels:
[1] = target: Human Fc-OX40L (human) (UniProt P23510); test: cell-based or functional assay
[2] = target: Human Fc-OX40L (human) (UniProt P23510); test: BIAcore, immobilized hFc-OX40L

Sequence of Human Fc-OX40L (human) (P23510 51-183 limits assumed): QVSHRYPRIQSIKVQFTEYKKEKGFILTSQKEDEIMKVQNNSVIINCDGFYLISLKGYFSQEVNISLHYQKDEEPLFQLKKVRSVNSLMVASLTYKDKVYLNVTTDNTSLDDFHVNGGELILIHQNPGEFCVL

- Costimulation Value (IC50), T cell proliferation (3H-thymidine) [1]: 3.2
- IL-2 Inhibition (IC50 [nM]) [1]: 0.22 nM
- EC50 [2]: 0.4 nM
B1: Ab G (antibody, part only; not given: light chain, part only)
heavy: MEFGLSWIFLAAILKGVQCEVQLVESGGGLVKPGGSLRLSCAASGFTFSNAWMSWVRQAPGKGLEWIGRIKSKTEGGTTDYGAPVKGRFTISRDDSKNTLYLQMNSLKTEDTAVYSCTTDFLWFGEFPFDYWGQGTLVTVSSASTKGPSVFPLAPCSRSTSESTAALGCLVKDYFPEPVTVSWNSGALTSGVHTFPAVLQSSGLYSLSSVVTVPSSNFGTQTYTCNVDHKPSNTKVDKTVERKCCVECPPCPAPPVAGPSVFLFPPKPKDTLMISRTPEVTCVVVDVSHEDPEVQFNWYVDGVEVHNAKTKPREEQFNSTFRVVSVLTVVHQDWLNGKEYKCKVSNKGLPAPIEKTISKTKGQPREPQVYTLPPSREEMTKNQVSLTCLVKGFYPSDIAVEWESNGQPENNYKTTPPMLDSDGSFFLYSKLTVDKSRWQQGNVFSCSVMHEALHNHYTQKSLSLSPGK
